Test results reported in US20240083958A1, “G PROTEIN PEPTIDOMIMETICS” (VRIJE UNIVERSITEIT BRUSSEL, priority 2020, published 2024).
Like-named read-outs stand apart in the source and are kept apart here. Bridge positions count the residues as written; N and C are the ends. Square brackets hold non-standard residues; d marks the D form. Primed or numbered codes have the meaning given here. Azk = residue with azidated side chain, clicked to Pra; Pra′ = residue with alkynyl side chain, clicked to Azk; R8 = C=CCCCCCC[C@@](C)(N)C(=O)O; Cha = N[C@@H](CC1CCCCC1)C(=O)O; S5 = C=CCCC[C@](C)(N)C(=O)O

Experiments:
Test in all cases: cell-based or functional assay
[1] = target: dopamine 1 receptor (D1R) (UniProt P21728 1-446, limits assumed)
dopamine 1 receptor (D1R), sequence (P21728 whole entry): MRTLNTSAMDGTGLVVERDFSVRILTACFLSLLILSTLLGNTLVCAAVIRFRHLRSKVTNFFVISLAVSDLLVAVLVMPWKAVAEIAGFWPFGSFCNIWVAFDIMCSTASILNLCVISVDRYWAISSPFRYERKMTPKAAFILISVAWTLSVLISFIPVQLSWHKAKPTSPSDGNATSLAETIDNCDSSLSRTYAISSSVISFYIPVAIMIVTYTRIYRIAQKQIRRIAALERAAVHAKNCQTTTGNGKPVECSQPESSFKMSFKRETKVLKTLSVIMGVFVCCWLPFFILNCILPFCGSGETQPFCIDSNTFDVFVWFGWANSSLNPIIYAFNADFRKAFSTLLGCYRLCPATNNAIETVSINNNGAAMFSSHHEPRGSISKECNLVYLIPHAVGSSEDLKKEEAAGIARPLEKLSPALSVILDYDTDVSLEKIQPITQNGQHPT

[2] = target: T1, human β2AR (human, UniProt P07550 2-365)
[3] = target: T1, human β2AR; remark: listed apart in the source
[4] = target: T1, human β2AR; remark: listed apart in the source
[5] = target: T1, human β2AR; remark: listed apart in the source
[6] = target: T1, human β2AR; remark: listed apart in the source
[7] = target: T1, human β2AR; remark: listed apart in the source
[8] = target: T1, human β2AR; remark: listed apart in the source
[9] = target: T1, human β2AR; remark: listed apart in the source
[10] = target: T1, human β2AR; remark: listed apart in the source
[11] = target: T1, human β2AR; remark: listed apart in the source

B1: compound 42 (peptide)
peptide: Ac-KKKFN[Pra′]CRD[Azk]IQRMHLRQYELL-OH
modifications: triazole 6-10
[1]
  IC50 (nM) of A-77636, [3H]-SCH23390 RLA, compound 42 at 10 µM: 0.41 nM
[2]
  Shift (averaged): 49
[3]
  IC50 (nM) of isoproterenol, [3H]-DHA RLA, peptidomimetic present: 27.4 nM
  Shift: 42

B2: compound 14 (peptide)
peptide: Ac-FNDCRD[R8]IQRMHL[S5]QYELL-OH
modifications: staple 7-14
SMILES: CC[C@H](C)[C@@H]1NC(=O)[C@](C)(NC(=O)[C@H](CC(=O)O)NC(=O)[C@H](CCCNC(=N)N)NC(=O)[C@H](CS)NC(=O)[C@H](CC(=O)O)NC(=O)[C@H](CC(N)=O)NC(=O)[C@H](Cc2ccccc2)NC(C)=O)CCCCCCC=CCCC[C@@](C)(C(=O)N[C@@H](CCC(N)=O)C(=O)N[C@@H](Cc2ccc(O)cc2)C(=O)N[C@@H](CCC(=O)O)C(=O)N[C@@H](CC(C)C)C(=O)N[C@@H](CC(C)C)C(=O)O)NC(=O)[C@H](CC(C)C)NC(=O)[C@H](Cc2c[nH]cn2)NC(=O)[C@H](CCSC)NC(=O)[C@H](CCCNC(=N)N)NC(=O)[C@H](CCC(N)=O)NC1=O
[4]
  Shift (averaged): 2
[5]
  IC50 (nM) of isoproterenol, [3H]-DHA RLA, peptidomimetic present: 433 nM
  Shift: 2

B3: compound 16 (peptide)
peptide: Ac-RDIIQRMHLRQYELL-OH
[6]
  IC50 (nM) of isoproterenol, [3H]-DHA RLA, peptidomimetic present: 614 nM

B4: compound 51 (peptide)
peptide: Ac-KKKFN[Pra′]CRD[Azk]IQRMHLRQYE[Cha]L-OH
modifications: triazole 6-10
[1]
  IC50 (nM) of A-77636, [3H]-SCH23390 RLA, compound 51 at 10 µM: 0.25 nM
[2]
  Shift (averaged): 400
[7]
  IC50 (nM) of isoproterenol, [3H]-DHA RLA, compound 51 at 1 µM: 56.4 nM
  IC50 (nM) of isoproterenol, [3H]-DHA RLA, compound 51 at 10 µM: 6.7 nM
  IC50 (nM) of isoproterenol, [3H]-DHA RLA, compound 51 at 50 µM: 6.9 nM
  IC50 (nM) of isoproterenol, [3H]-DHA RLA, compound 51 at 100 µM: 3.4 nM
[8]
  Fraction HI (%): 83%
  IC50 (nM) of isoproterenol, [3H]-DHA RLA, peptidomimetic present: 2.8 nM
  Shift: 580

B5: compound 63 (peptide)
peptide: FNDCRDIIQRMHLRQYEXL
HELM: PEPTIDE1{[ac].F.N.D.C.R.D.I.I.Q.R.M.H.L.R.Q.Y.E.[Cha].L}$$$$V2.0
SMILES: CC[C@H](C)[C@H](NC(=O)[C@H](CC(=O)O)NC(=O)[C@H](CCCNC(=N)N)NC(=O)[C@H](CS)NC(=O)[C@H](CC(=O)O)NC(=O)[C@H](CC(N)=O)NC(=O)[C@H](Cc1ccccc1)NC(C)=O)C(=O)N[C@H](C(=O)N[C@@H](CCC(N)=O)C(=O)N[C@@H](CCCNC(=N)N)C(=O)N[C@@H](CCSC)C(=O)N[C@@H](Cc1c[nH]cn1)C(=O)N[C@@H](CC(C)C)C(=O)N[C@@H](CCCNC(=N)N)C(=O)N[C@@H](CCC(N)=O)C(=O)N[C@@H](Cc1ccc(O)cc1)C(=O)N[C@@H](CCC(=O)O)C(=O)N[C@@H](CC1CCCCC1)C(=O)N[C@@H](CC(C)C)C(=O)O)[C@@H](C)CC
[1]
  IC50 (nM) of A-77636, [3H]-SCH23390 RLA, compound 63 at 10 µM: 0.55 nM
[2]
  Shift (averaged): 203
[9]
  Fraction HI (%): 81%
  IC50 (nM) of isoproterenol, [3H]-DHA RLA, peptidomimetic present: 7.3 nM
  Shift: 217
[10]
  IC50 (nM) of isoproterenol, [3H]-DHA RLA, peptidomimetic present: 3.96 nM
  Shift: 198
[11]
  IC50 (nM) of isoproterenol, [3H]-DHA RLA, peptidomimetic present: 6.88 nM
  Shift: 118
